The record followed here is patent US20260092121A1 (TALEM THERAPEUTICS, published 2026).

The chains are these.
B1: anti-CD3 Fab clone 4-A01 (Fab, V domains shown)
VH: QVQLVQSEGGLVQPGGSLRLSCAASGFSFGSSAMSWVRQAPGRGLEWVSGISHSGSTTYYADSVKGRFTISRDNSKNTLYLQMNSLRVEDTAVYYCAKIGAYGYYFHYWGQGTLVTVSS
VL: NFMLTQPHSVSESPGKTVTISCTGSGGNIGNNYVQWYQQRPDSPPSTVIYDDSQRPSGVPDRFSGSIDRSSNSASLTISGLRTEDEADYYCQSSDSGRVVFGGGTKLTV
notes: Fab, HEK293
B2: anti-CD3 Fab clone 4-G03 (Fab, V domains shown)
VH: QVQLLQSAGGLVQPGGSLRLSCAASGYSFGSSAMSWVRQAPGRGLEWVSGISHSGSTTYYADSVKGRFTISRDNSKNTLYLQMNSLRAEDTAVYYCAKIGAYGYYFHYWGQGTLVTVSS
VL: NFMLTQPHSVSESPGKTVTISCTGNGGNIASNYVQWYQHRPDSAPIAVIYDDSQRPSGIPDRFSGSIDRSSNSASLTISGLRPEDEADYYCQSSDNANVVFGGGTKLTVL
notes: Fab, HEK293
B3: anti-CD3 Fab clone 7-E01 (Fab, V domains shown)
VH: QVQLQQSGGGLVQPGGSLRLSCAASGFSFGSSAMSWVRQAPGRGLEWVSGISHSGSTTYYADSVKGRFTISRDNSKNTLYLQMNSLRVEDTAVYYCAKIGAYGYYFHYWGQGTLVTVSS
VL: NFMLTQPHSVSESPGRTVTISCTRSSGSIASNYVQWYQQRPGSAPTTVIYEDNQRLSGVPDRFSGSIDRSSNSASLTISGLKTEDEADYYCQSSDDSNHLVFGGGTKLTVL
notes: Fab, HEK293
B4: anti-CD3 Fab clone 7-C11 (Fab, V domains shown)
VH: EVQLVESGGGLVQPGGSLRLSCAASGFTSNTYAMSWVRQAPGKGLEWVSTISGSGSSTNYADSVKGRFTISRDSSKNTLYLQMNSLRAEDTAVYYCARIERYSYGIDYWGQGTLVTVSS
VL: NFMLTQPHSVSESPGKTVTISCTRNTGGIAANYVQWYHQRPGSAPTTVIYEDKQRPSGVPGRFSGSIDGSSNSASLTISGLQAEDEGDYYCHSSDNNNQVFGGGTKLTVL
notes: Fab, HEK293
B5: anti-CD3 Fab clone 3-B05 (Fab, V domains shown)
VH: QVQLLQSAGGVVQPGRSLRLSCAASGFTFSTYAVHWVRQAPGKGLEWVAAISYDGAGKYYGDSVRGRFTISRDDSKNTVYLQMNSLRAEDTAVYYCAGEHYTLTDEEFDFWGQGTLVTVSS
VL: QSVLTQPPSVSAAPGQKVTISCSGSASNIGNNYVSWYQQLPGTAPKLLIYDNNQRPSGIPDRFSGSKSGTSATLGITGLQTGDEADYYCGTWDTSLRGVVFGGGTKVTVL
notes: Fab, HEK293
B6: anti-CD3 Fab clone 1-G11 (Fab, V domains shown)
VH: QVQLVQSGAEVKKPGASVKVSCKASGYTFTSYGISWVRQAPGQGLEWMGWISAYNGNTNYAQKLQGRVTMTTDTPTSTAYMEVRSLRSDDTAVYYCAREVNYGLDVWGQGTLVTVSS
VL: QPVLTQPPSASGTPGQRVTISCSGSSSNIGSKYVYWYQQLPGTAPKLLIYRNNQRPSGVPDRFSGSKSGTSASLVISGLRSEDEADYHCAAWDDSLSGRVFGGGTKLTVL
notes: Fab, HEK293
B7: anti-CD3 Fab clone 4-G04 (Fab, V domains shown)
VH: QVNLRESGGGVVQPGGSLRLSCAASGFTFRRYGMNWIRQAPGKGLEWVSSISSSSSYIYYADSVKGRFTISRDNAKNSLYLQMNSLRAEDTAMYYCVRDGRFINGLDVWGQGTLVTVSS
VL: NFMLTQPHSVSESPGRTVTISCTRSSGSIASNYVQWYQQRPGSSPTTVIYDDKKRPSGVPDRFSGSIDSSTNSASLTISGLKTEDEADYYCQSYDSSNHWVFGGGTKVTVL
notes: Fab, HEK293
B8: anti-CD3 Fab clone 3-A06 (Fab, V domains shown)
VH: QVTLRESGGGLVKPGGSLRLSCSASGFTFRGFYMAWIRQAPGKGLEWVAYISSSGSAVYHADSVKGRFTVSRDNAKNLMYLEMNSLRADDTAVYYCARDGGTGGFDYWGQGTLVTVSS
VL: NFMLTQPHSVSESPGKTVAISCSRSSGSVASNYVQWYQQRPGNVPTTIIYQDNQRPSGVPDRFSGSIDKSSNSASLTISGLKTEDEADYYCQSYDGRRLIFGGGTKLTVL
notes: Fab, HEK293; not the anti-TrkB clone 3A06
B9: anti-CD3 Fab clone 3-B06 (Fab, V domains shown)
VH: QVQLQQSGAEVKKPGASLKVSCKASGYTFTRYGFSWVRQAPGQGLEWMGWISAYNGNTNYAQKFQGRVTMTTDTSTSTAYMEMRSLRSDDTAVYYCARDRGYCSGGSCPGIDAFDIWGQGTMVTVSS
VL: SYVLTQPPSVSVAPGQTAKITCGGDNIENKYVHWYQQKPGQAPVVVVYDDSDRPSGIPDRFSGSNSGNTATLTITRVEAGDEADYYCQVWDSSSDRVVFGGGTKLTVL
notes: Fab, HEK293; not the anti-TrkB clone 3B06
B10: anti-CD3 Fab clone 1-C12 (Fab, V domains shown)
VH: QVQLQQSGPGLVKPSQTLSLTCAISGDSVSSNSAAWNWIRQSPSRGLEWLGRTYYRSKWYNDYAVSVKSRITINPDTSKNQFSLQLNSVTPEDTAVYYCARGITGTGYGMDVWGQGTLVTVSS
VL: QSVLTQPPSASGTPGQRVTISCSGSSSNIGRNHVYWYQQLPGTAPKLLIYNNDQRPSGVPDRFSGSKSGTSGSLTISGLQAEDEADYYCAAWDDSLSSGVFGGGTKVTVL
notes: Fab, HEK293
B11: anti-CD3 Fab clone 8-B12 (Fab, V domains shown)
VH: HVQLVQSGGGSAQHGGSLRLSCAASGFTFNNSYMNWVRQAPGKRLEWISTISRGGNSVYYADSVKGRFTVSRDNTKNLTFLQMDSLRDEDTAVYYCAKGGDYLYWGQGTLVTVSS
VL: NFMLTQPHSVSESPGKTVTLSCTRSSGSIASKYVQWYQQRPGSAPTIVIFDDDRRPSGVPDRFSGSIDRSSNSASLTIFGMKTEDEADYYCQSYDSSNWVFGGGTKLTVL
notes: Fab, HEK293
B12: anti-CD3 Fab clone 5-A05 (Fab, V domains shown)
VH: QVQLVQSGAEGKKPGSSVKVSCKASGGTFSSYAISWVRQAPGQGLEWMGGIIPIFGTANYAQKFQGRVTITADESTSTAYMELRSLRSDDTAVYYCARDAVVVADSGSMDVWGQGTTVTVSS
VL: not shown
notes: Fab, HEK293
B13: anti-CD3 Fab clone 1-H01 (Fab, V domains shown)
VH: QVQLVQSGAEVKKPGSSVKVSCKASGGTFSSYAISWVRQAPGQGLEWMGGIIPIFGTANYAQKFQGRVTITADESTSTAYMELSSLRSEDTAVYYCARDAVVVADSGSMDVWGQGTTVTVSS
VL: not shown
notes: Fab, HEK293
B14: anti-CD3 Fab clone 5-C03 (Fab, V domains shown)
VH: QVQLQQSGPGLVKPSQTLSLTCAISGDSVSSNSAAWNWIRQSPSRGLEWLGRTYYRSKWYNDYAVSVKSRITINPDTSKNQFSLQLNSVTPEDTAVYYCATWGMDVWGQGTTVTVSS
VL: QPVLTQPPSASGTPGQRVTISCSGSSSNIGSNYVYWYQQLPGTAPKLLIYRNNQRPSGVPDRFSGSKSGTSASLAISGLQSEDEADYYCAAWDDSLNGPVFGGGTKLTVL
notes: Fab, HEK293
B15: anti-CD3 Fab clone 2-C02 (Fab, V domains shown)
VH: QVQLQQSGPGLVKPSQTLSLTCAISGDSVSSNSAAWNWIRQSPSRGLEWLGRTYYRSKWYNDYAVSVKSRITINPDTSKNQFSLHLNSVTPEDTAVYYCATWGMDVWGQGTTVTVSS
VL: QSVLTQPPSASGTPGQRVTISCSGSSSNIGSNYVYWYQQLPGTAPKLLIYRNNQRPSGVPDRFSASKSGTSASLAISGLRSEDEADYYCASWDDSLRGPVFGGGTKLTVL
notes: Fab, HEK293
B16: anti-CD3 Fab clone 6-C04 (Fab, V domains shown)
VH: QVQLQQSGPGLVKPSQTLSLTCAISGDSVSSNSAAWNWIRQSPSRGLEWLGRTYYRSKWYNDYAVSVKSRITINPDTSKNQFSLHLNSVTPEDTAVYYCATWGMDVWGQGTMVTVSS
VL: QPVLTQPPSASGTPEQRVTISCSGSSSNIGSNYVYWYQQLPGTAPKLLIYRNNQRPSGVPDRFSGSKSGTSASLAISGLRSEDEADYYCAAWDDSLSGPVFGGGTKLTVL
notes: Fab, HEK293
B17: anti-CD3 Fab clone 7-G01 (Fab, V domains shown)
VH: QVQLVQSGPEVKKPGASVNISCKTSGYTFRNYYVHWVRQAPGQGFEYMGRVNPNSGNARYAQKFQGRVAMTSDTSTSTAYMELSSLRSEDTAVYYCAREPPATVAYYYGMDVWGQGTTVTVSS
VL: NFMLTQPHSVSESPGKTVTISCTGSSGSIASNYVHWYQQRPGSAPTTVIYEDNQRPSGVPDRFSGSIDSSSNSASLTISGLKTEDEADYYCRSYDSSNRNWVFGGGTKLTVL
notes: Fab, HEK293
B18: anti-CD3 Fab clone 3-A05 (Fab, V domains shown)
VH: QVQLLQSAAEVKKPGASVKVPCKASGYTFTGHYMHWVRQAPGQGLEWMGIINPRGGSTSYAQKFQGRVTMTRDTSTSTVYMELSSLRSEDTAVYYCARESIAAAGPYFDYWGQGTLVTVSS
VL: QSALTQPHSVSESPGKTVTISCTRTSGRIGSNYVQWYQQRPGSAPTVVIYEDNQRPSGVPDRFSGSIDSSTNSASLTISRLKTEDEADYYCQSYDSGVVVVFGGGTKLTV
notes: Fab, HEK293; not the anti-TrkB clone 3A05
B19: anti-CD3 Fab clone 3-A03 (Fab, V domains shown)
VH: EVQLVESGGGVVQPGRSLRLSCAASGFTFSSYAMHWVRQAPGKGLEWVSAISGSGGSTYYADSVKGRFTISRDNSKNTLYLQMNSLRAEDTAVYYCARDAHDYWGQGTLVTVSS
VL: QSVLTQPPSVSAAPGQKATISCSGGSSNLGNNYVSWYQQLPGTAPKLLIYDNNKRPSGIPDRFSGSKSGTSAALAITGLQTGDEADYYCGTWDSSLSAGVFGGGTKLTVL
notes: Fab, HEK293
B20: anti-CD3 Fab clone 1-D03 (Fab, V domains shown)
VH: EVQLVQSGGGLVKPGRSLRLSCTASGFTFGDYAMSWFRQAPGKGLEWVGFIRSKAYGGTTEYAASVKGRFTISRDDSKSIAYLQMNSLKTEDTAVYYCTRVSDIYGMDVWGQGTTVTVSS
VL: QSVLTQPPSVSAAPGQKVTISCSGSSSNIGNNYVSWYQQLPGTAPKLLIYDNNKRPSGIPDRFSGSKSGTSATLGITGLQTGDEADYYCATWDDSLKAGVFGGGTKLTVL
notes: Fab, HEK293
B21: anti-CD3 Fab clone 3-B04 (Fab, V domains shown)
VH: QVQLVQSGGGLVQPGRSLRLSCAASGFTFDDFAMHWVRQAPGKGLEWVSGITWNSAATIYADSVKGRFTISRDNAKNSLYLQMNSLRPEDTAVYYCARDRGGPKDPFDIWGQGTMVTVSS
VL: QSVLTQPPSVSAAPGKKVTISCSGGSSNIGKNYVSWYQQLPGTAPKLLIYDNNKRPSGIPDRFSGSKSGTSATLGITGLQTGDEADYYCGTWDSSLSAVVFGGGTKLTVL
notes: Fab, HEK293; not the anti-TrkB clone 3B04
B22: anti-CD3 Fab clone 7-A11 (Fab, V domains shown)
VH: EVQLVESGGGVVQPGRSLRLSCAASGFTFSSYGIHWVRQAPGKGLEWVSAISGSGGSTYYADSVKGRFTISRDNAKNSLYLQMNSLRDEDTAVYYCARERLIGMDVWGQGTTVTVSS
VL: NFMLTQPHSVAESPGKTVTISCTRSSGSIASNYVQWYQQRPGSAPTTVIYEDNQRPSGVPDRFSGSIDSSSNSASLTISGLKTEDEADYYCQSYDSGNPRVFGGGTKLTVL
notes: Fab, HEK293
B23: anti-CD3 Fab clone 3-C04 (Fab, V domains shown)
VH: EVQLVESGGGLVQPGGSLRLSCAASGFTFNNFYMNWVRQAPGKGLEWISTISRGGNSVYYADSVKGRFTVSRDNAKNSLFLQMDSLRDEDTAVYYCVRGGDFLYWGQGTLVTVSS
VL: NFMLTQPHSVSESPGKTVTISCTRSTGSIAGNYVQWYQQRPGSSPTTVILEDKQRPSGVPDRFSGSIDTSSNSATLTISGLKTEDEADYYCQSYDSGNVIFGGGTKLTVL
notes: Fab, HEK293

The target in the test is T1, biotinylated His-Avi-tagged human CD3δ/ε heterodimer (human, UniProt P07766 23-126; P04234 22-105, biotinylated).
T1 construct: bought, expressed from HEK293; also called CD30/8; Biotin-CD3
T1 sequence (P07766 23-126, stated change not applied, chain 1 of 2): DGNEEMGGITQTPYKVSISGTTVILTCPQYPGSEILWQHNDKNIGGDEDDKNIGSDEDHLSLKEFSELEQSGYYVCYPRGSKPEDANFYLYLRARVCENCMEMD
T1 sequence (P04234 22-105, stated change not applied, chain 2 of 2): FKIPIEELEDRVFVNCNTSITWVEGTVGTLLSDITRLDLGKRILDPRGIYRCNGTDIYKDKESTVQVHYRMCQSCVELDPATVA
Nature of the test: ELISA. (In general: An ELISA detects its analyte on a solid surface through an enzyme-linked reagent.)
The molecule B1 had a concentration giving a half-maximal response (EC50) of 19.5 µg/mL.

Molecule B2 gave an EC50 of 16.8 µg/mL. As for B3, the EC50 stood at 7.9 µg/mL. B4: the EC50 was found to be 52.3 µg/mL. Take B5: the EC50 amounted to 7.2 µg/mL. With B6 the figure was 7.9 µg/mL; with B7, 73.8 µg/mL. B8 came in with a concentration for a half-maximal effect (EC50) of 3.6 µg/mL. The molecule B9 had an EC50 of 16.9 µg/mL. B10 registered an EC50 of 19.2 µg/mL. For B11, the 50% effective concentration (EC50) is 38.2 µg/mL. On to B12, for which the midpoint of the response, the EC50, lay at 4.3 µg/mL. Molecule B13 yielded a concentration giving a half-maximal response (EC50) of 6.8 µg/mL.

With B14, the EC50 came out at 23.9 µg/mL. For B15, the EC50 was 23.9 µg/mL.

With B16, a half-maximal response (EC50) required 47.7 µg/mL. Molecule B17 yielded a concentration giving a half-maximal response (EC50) of 6.3 µg/mL. B18 had an EC50 of 11.4 µg/mL. In the case of B19, the response was half-maximal at 5.2 µg/mL (EC50). Consider B20, for which it took 174 µg/mL to reach a half-maximal effect (EC50). For B21 the value was 10.9 µg/mL; for B22, 34.9 µg/mL.

In turn, B23 had an EC50 of 5.9 µg/mL.

Broadly, the EC50 is the concentration that produces a half-maximal response.
